Experimental findings from patent US20230159612A1 (published 2023) are described below.

Test [1] has as its target T1, ASTN1 peptide on HLA-A*02:01 (human).
T1 peptide: KLYGLDWAEL
In words: cytokine release.

The target in test [2] is T2, MAGE-A4 peptide on HLA-A*02:01 (human).
T2 peptide: GVYDGREHTV
In words: multimer staining.

B1: TCR-2 (TCR, V domains shown)
Valpha: AQKITQTQPGMFVQEKEAVTLDCTYDTSDPSYGLFWYKQPSSGEMIFLIYQGSYDQQNATEGRYSLNFQKARKSANLVISASQLGDSAMYFCAMSGGYTGGFKTIFGAGTRLFVKA
Vbeta: DSGVTQTPKHLITATGQRVTLRCSPRSGDLSVYWYQQSLDQGLQFLIQYYNGEERAKGNILERFSAQQFPDLHSELNLSSLELGDSALYFCASSGGDGDEQFFGPGTRLTVL
In the case of B1, in test [1], the binding result is “no recognition”.

B2: TCR-1 (TCR, V domains shown)
Valpha: AQKITQTQPGMFVQEKEAVTLDCTYDTSDQSYGLFWYKQPSSGEMIFLIYQGSYDEQNATEGRYSLNFQKARKSANLVISASQLGDSAMYFCAMSGDSAGNMLTFGGGTRLMVKP
Vbeta: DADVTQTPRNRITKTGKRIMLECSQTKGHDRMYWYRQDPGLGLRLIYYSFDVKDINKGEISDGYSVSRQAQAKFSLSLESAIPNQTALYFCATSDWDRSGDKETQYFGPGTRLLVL
On to B2, for which the binding result in test [1] is reported as “no recognition”; in test [2], “recognises”.

B3: TCR-3 (TCR, V domains shown)
Valpha: GENVEQHPSTLSVQEGDSAVIKCTYSDSASNYFPWYKQELGKRPQLIIDIRSNVGEKKDQRIAVTLNKTAKHFSLHITETQPEDSAVYFCAASRGTGFQKLVFGTGTRLLVSP
Vbeta: DTAVSQTPKYLVTQMGNDKSIKCEQNLGHDTMYWYKQDSKKFLKIMFSYNNKELIINETVPNRFSPKSPDKAHLNLHINSLELGDSAVYFCASSQFWDGAGDEQYFGPGTRLTVT
As to B3, the binding result in test [1] was “no recognition”; in test [2], “recognises”.
